Measured values as given in the supplement of paper PMC9732359.
± gives the uncertainty stated by the source.

Experiment: protein stability index of a GFP-peptide fusion (yeast GPS) (PSI 1-4); higher = more stable; sorted into four equal gates, so the index is relative within each strain
Summary of the method: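 Plasmids in a pooled yeast library fused tiled 17-residue yeast protein peptides downstream of GFP and also expressed Cherry. Mid-log cultures grown without leucine were sorted into four equal gates by GFP/Cherry fluorescence ratio. Each gate's plasmids were PCR-amplified and Illumina-sequenced, and reads were matched to strains by barcodes. The protein stability index is derived by multiplying each gate's read frequency by its gate number and summing the results.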

Row | Sequence | protein stability index (doa10∆) | protein stability index (pdr5∆) | protein stability index (san1∆) | protein stability index (ubr1∆)
1 | DKKYKGLTTVWLLSALG [REC8] | 2.24 ± 0.054 | 2.38 ± 0.063 | 2.04 ± 0.084 | 2.29 ± 0.039
2 | VMESGAKGCEVVVSGKL [RPS3] | 3.04 ± 0.23 | – | 3 ± 0.24 | –
3 | HGAFMDIIWLQRDLGLY [RRP6] | 1.95 ± 0.047 | 1.49 ± 0.052 | 1.23 ± 0.069 | 1.46 ± 0.032
4 | IANMVLPPEKIYSPLHS [SIR2] | 1.54 ± 0.035 | 1.99 ± 0.036 | 1.73 ± 0.05 | 1.67 ± 0.032
5 | FGHIDLAKPVFHVGFIA [RPO21] | 2.37 ± 0.072 | 2.7 ± 0.085 | 2.73 ± 0.052 | 2.63 ± 0.06
6 | EKTMVKKNLGRLTRLWI [PRP8] | 2.28 ± 0.13 | 3.07 ± 0.12 | 1.45 ± 0.14 | 1.67 ± 0.2
7 | ETSSFGSMFSGDNTSDV [RRI1] | 3.48 ± 0.11 | 3.08 ± 0.13 | 3.25 ± 0.063 | 2.66 ± 0.15
8 | LLSSSNFEATKKSVLKQ [COR1] | 2.81 ± 0.29 | – | – | 2.83 ± 0.28
9 | LKSGLPLSGLLFKNYRF [YMR129W/POM152] | 3.65 ± 0.18 | 2.52 ± 0.2 | 3.63 ± 0.057 | –
10 | AFRTLRLARSEKKFRGI [RPL13A] | 3.4 ± 0.24 | 3.49 ± 0.15 | – | 3.3 ± 0.084
11 | SKNFNVILASSLNEVGT [YML103C/NUP188] | 2.44 ± 0.045 | 2.42 ± 0.043 | 2.56 ± 0.051 | 2.39 ± 0.036
12 | TKTEALLSDVVSTSSGA [YJL041W/NSP1] | 2.73 ± 0.13 | 3.1 ± 0.2 | 2.75 ± 0.15 | –
13 | ASGFGFGGSQPNSGTAT [YGR119C/NUP57] | 3.19 ± 0.14 | 2.74 ± 0.086 | 2.4 ± 0.11 | 2.87 ± 0.094
14 | LCDNFNHFSLSYKDSGL [COR1] | 2.27 ± 0.066 | 2.7 ± 0.069 | 2.73 ± 0.067 | 2.5 ± 0.066
15 | SQYSTMVNIGLHNLNEY [RGR1] | 1.16 ± 0.14 | 2.09 ± 0.1 | 1.16 ± 0.09 | 1.25 ± 0.13
16 | KSRIVKVVGPRGTLTKN [RPL9A] | 2.66 ± 0.074 | 2.92 ± 0.058 | 2.65 ± 0.052 | 2.71 ± 0.033
17 | LRSDFYILANHYLSRVL [YJL039C/NUP192] | 2.81 ± 0.054 | 2.85 ± 0.07 | 2.59 ± 0.07 | 2.44 ± 0.044
18 | KNVRFRVLQLLAVIMDN [YCG1] | 1.64 ± 0.057 | 1.54 ± 0.06 | 1.24 ± 0.099 | 1.51 ± 0.043
19 | MASRVDETTVPSYYYYV [ROX3] | 1.48 ± 0.07 | 2.24 ± 0.05 | 1.94 ± 0.096 | 1.94 ± 0.069
20 | ASDMSDEDIITIFKYLT [CDC53] | 2.84 ± 0.14 | 3.09 ± 0.13 | 3.23 ± 0.082 | 3.2 ± 0.061
21 | MRDKSFGRTLASVTKEI [RPL12A] | 3.25 ± 0.1 | 3.08 ± 0.12 | 2.87 ± 0.13 | 2.81 ± 0.18
22 | FKKQMQTIMKMGPLSNI [SRP54] | 2.59 ± 0.11 | 3.14 ± 0.074 | 3.03 ± 0.1 | 2.92 ± 0.072
23 | ELAQDPQTMEHYKQQIA [YCS4] | 2.31 ± 0.055 | 2.65 ± 0.077 | 2.1 ± 0.1 | 2.4 ± 0.06
24 | IKNLTVQLSPSNPQHII [RGR1] | 2.6 ± 0.052 | 2.74 ± 0.05 | 2.42 ± 0.062 | 2.67 ± 0.049
25 | SMKDRAQHAVILDQEKY [RPS25A] | 1.55 ± 0.094 | 2 ± 0.13 | 2.42 ± 0.14 | 2.23 ± 0.081
26 | TSTPPPPPAPHNLHPQI [SNF5] | 3.2 ± 0.058 | 3.16 ± 0.048 | 3.08 ± 0.049 | 3.14 ± 0.039
27 | RFDAQTGSDREVQRILI [RPT3] | 3.09 ± 0.12 | 3.08 ± 0.14 | 3.43 ± 0.1 | 3.4 ± 0.16

Row | Sequence | protein stability index (doa10∆) | protein stability index (pdr5∆) | protein stability index (san1∆) | protein stability index (ubr1∆)
28 | TINLDRFMKGRRSKQLI [RPC82] | 2.09 ± 0.1 | 2.64 ± 0.078 | 1.79 ± 0.17 | 2.74 ± 0.078
29 | DWQKEDGIFSSKTDNIE [YMR153W/NUP53] | – | – | 3.22 ± 0.15 | 2.86 ± 0.2
30 | TVFFLIRVAETRGGASA [YJL039C/NUP192] | 2.18 ± 0.071 | 2.08 ± 0.074 | 2.76 ± 0.13 | 2.13 ± 0.047
31 | LPHITQLEGFESRKAFF [RPB2] | 2.92 ± 0.082 | 2.96 ± 0.06 | 3.08 ± 0.052 | 3.12 ± 0.041
32 | SNMQKSLLPYYHLTKAV [RPN3] | 2.02 ± 0.038 | 1.87 ± 0.044 | 1.85 ± 0.062 | 1.92 ± 0.033
33 | NLIIFLYKFNGWSLVGR [YML103C/NUP188] | 1.59 ± 0.069 | 2.22 ± 0.11 | 2.52 ± 0.2 | 2.68 ± 0.11
34 | RSTKDMIDAVFEQDSHL [SNF6] | 3.12 ± 0.068 | 3.34 ± 0.054 | 3.27 ± 0.053 | 3.14 ± 0.058
35 | TIQYDPPETKLPYPTYW [SNF5] | 3.02 ± 0.049 | 2.93 ± 0.042 | 2.98 ± 0.039 | 2.94 ± 0.039
36 | QMDGFDNLGQTKIIMAT [RPT4] | 3.54 ± 0.091 | 3.55 ± 0.11 | 3.66 ± 0.082 | 3.48 ± 0.098
37 | GLFPFESYKPSVQLPDM [SWI3] | 3.05 ± 0.09 | 2.88 ± 0.081 | 2.96 ± 0.067 | 2.81 ± 0.07
38 | KEKEKEREEAEKKRAEQ [MED2] | – | – | 2.75 ± 0.28 | –
39 | KVIEEQLKHTKLALAEN [SMC4] | 1.89 ± 0.12 | 1.78 ± 0.1 | 1.32 ± 0.15 | 2.23 ± 0.098
40 | NESWKSSFEKFNDSQAI [SRP72] | 2.96 ± 0.055 | 2.96 ± 0.059 | 2.79 ± 0.043 | 3.02 ± 0.037
41 | DPNEVEIKKLLATNSLV [DIS3] | 2.19 ± 0.049 | 1.82 ± 0.048 | 2.35 ± 0.057 | 2.29 ± 0.046
42 | GNIISSDKTIVPTSIQT [SIN4] | 2.42 ± 0.061 | 2.61 ± 0.054 | 2.1 ± 0.076 | 2.77 ± 0.051
43 | YQNRSTRSQFCLNTQRG [RRI1] | 2.8 ± 0.054 | 3.09 ± 0.063 | 3.1 ± 0.046 | 2.97 ± 0.034
44 | IGEFNVSMYQNSSTSST [YDL088C/ASM4] | 3.61 ± 0.28 | 1.97 ± 0.13 | – | 2.17 ± 0.098
45 | VDPKRLAMVIIKEFVDD [DSN1] | 3.33 ± 0.1 | 3.3 ± 0.1 | 3.31 ± 0.096 | 3.1 ± 0.066
46 | LRDDTLPKAWISLAVEG [COR1] | 2.55 ± 0.059 | 1.9 ± 0.08 | 1.78 ± 0.12 | 1.44 ± 0.037
47 | KIADNISKDENEDQFLE [YDL116W/NUP84] | 2.92 ± 0.14 | 2.98 ± 0.13 | 2.86 ± 0.13 | 3.33 ± 0.1
48 | FLRTQFLKLYVLVKWTR [RGR1] | 1.46 ± 0.084 | 1.95 ± 0.065 | 1.63 ± 0.11 | 1.56 ± 0.06
49 | PSEILHLILDKLNQKYD [GRR1] | 3.14 ± 0.096 | 2.48 ± 0.068 | 2.54 ± 0.19 | 2.46 ± 0.061
50 | VQVGPMKVFVTKHLMPQ [RPB7] | 2.54 ± 0.047 | 2.37 ± 0.041 | 2.14 ± 0.062 | 2.52 ± 0.042
51 | LRFGEGASGEERLMSRP [PUP2] | 3.52 ± 0.15 | 3.36 ± 0.12 | 3.21 ± 0.1 | 3.23 ± 0.065
52 | VINKLDRLILDLKLPPM [SNU114] | 2.05 ± 0.12 | 1.31 ± 0.12 | 1.06 ± 0.23 | 2.14 ± 0.1
53 | YGDGNGKGDNDNGLGPL [SWI3] | 3.46 ± 0.15 | 3.13 ± 0.3 | 3.31 ± 0.073 | 3 ± 0.1
